Source: PMC4081048

Molecular target: T1, GST-NHERF1-PDZ2 (PDZ2 domain of Na+/H+ exchanger regulatory factor 1 fused to GST)
T1 sequence (O14745 whole entry, species assumed, looked up): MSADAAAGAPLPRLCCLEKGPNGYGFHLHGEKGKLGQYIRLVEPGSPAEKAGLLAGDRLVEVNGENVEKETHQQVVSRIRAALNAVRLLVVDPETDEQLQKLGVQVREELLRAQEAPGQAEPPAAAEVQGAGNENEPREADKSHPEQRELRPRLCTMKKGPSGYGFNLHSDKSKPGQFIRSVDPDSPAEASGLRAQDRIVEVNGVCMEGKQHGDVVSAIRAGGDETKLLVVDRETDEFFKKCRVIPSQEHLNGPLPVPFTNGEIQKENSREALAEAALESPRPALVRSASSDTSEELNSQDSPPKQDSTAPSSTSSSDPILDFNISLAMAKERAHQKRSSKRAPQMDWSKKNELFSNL
Assay: AlphaScreen or HTRF

Row | IC50 | Substance
1 | 442 nM | Flag-ΔF508 CFTR (CFTR with deletion of phenylalanine at residue 508) (from UniProt P13569 1-1480) (natural protein)
2 | 89.3 nM | Flag-WT CFTR (cystic fibrosis transmembrane-conductance regulator, wild type) (from UniProt P13569 1-1480) (natural protein)
